From IntAct's records for PubMed 19666841 come the findings set out here.

Sequences and labels used below:
B1: Glycerol-3-phosphate dehydrogenase 1-like protein (Homo sapiens), Q8N335 (parent)
chain: MAAAPLKVCIVGSGNWGSAVAKIIGNNVKKLQKFASTVKMWVFEETVNGRKLTDIINNDHENVKYLPGHKLPENVVAMSNLSEAVQDADLLVFVIPHQFIHRICDEITGRVPKKALGITLIKGIDEGPEGLKLISDIIREKMGIDISVLMGANIANEVAAEKFCETTIGSKVMENGLLFKELLQTPNFRITVVDDADTVELCGALKNIVAVGAGFCDGLRCGDNTKAAVIRLGLMEMIAFARIFCKGQVSTATFLESCGVADLITTCYGGRNRRVAEAFARTGKTIEELEKEMLNGQKLQGPQTSAEVYRILKQKGLLDKFPLFTAVYQICYESRPVQEMLSCLQSHPEHT

In this assay the parent is B1. The note with it: with scn5a_human SCN5A.
Consider MAAAPLKVCIVGSGNWGSAVAKIIGNNVKKLQKFASTVKMWVFEETVNGRKLTDIINNDHENVKYLPGHKLPENVVAMSNLSKAVQDADLLVFVIPHQFIHRICDEITGRVPKKALGITLIKGIDEGPEGLKLISDIIREKMGIDISVLMGANIANEVAAEKFCETTIGSKVMENGLLFKELLQTPNFRITVVDDADTVELCGALKNIVAVGAGFCDGLRCGDNTKAAVIRLGLMEMIAFARIFCKGQVSTATFLESCGVADLITTCYGGRNRRVAEAFARTGKTIEELEKEMLNGQKLQGPQTSAEVYRILKQKGLLDKFPLFTAVYQICYESRPVQEMLSCLQSHPEHT [E83K], for which the “effect of a mutation on the interaction” value is reported as “with no effect”.

Take MAAAPLKVCIVGSGNWGSAVAKIIGNNVKKLQKFASTVKMWVFEETVNGRKLTDIINNDHENVKYLPGHKLPENVVAMSNLSEAVQDADLLVFVIPHQFIHRICDEITGRVPKKALGITLIKGIDEGPEGLKLISDIIREKMGIDISVLMGANIANEVAAEKFCETTIGSKVMENGLLFKELLQTPNFRITVVDDADTVELCGALKNIVAVGAGFCDGLRCGDNTKAAVIRLGLMEMIAFARIFCKGQVSTATFLESCGVADLITTCYGGRNRRVAEAFVRTGKTIEELEKEMLNGQKLQGPQTSAEVYRILKQKGLLDKFPLFTAVYQICYESRPVQEMLSCLQSHPEHT [A280V]: the “effect of a mutation on the interaction” value is “with no effect”.
